These results are taken from patent publication US20250326840A1 (QURE BIOTECHNOLOGY SHANGHAI, published 2025).

Read-outs that look alike come from different tables or passages of the source.

The target in test [1] is SIRPα V7 fusion Fc (mouse IgG2a) (human). The test can be described thus: ELISA, SIRPα V7-mouse IgG2a Fc coated, anti-hFab detection.
The target of test [2] is SIRPα V8 fusion Fc (mouse IgG2a) (human). Kind of test: ELISA, SIRPα V8-mouse IgG2a Fc coated, anti-hFab detection. In general terms: In an ELISA, binding on a coated surface is turned into a signal by an enzyme label.
For test [3], the target named is SIRPα V2 fusion Fc (mouse IgG2a) (human). The test can be described thus: ELISA, SIRPα V2-mouse IgG2a Fc coated, anti-hFab detection; unit from the x axis; the curve is flat at the baseline, the fit is marked ambiguous (~).
Test [4] deals with SIRPα V3 fusion Fc (mouse IgG2a) (human). Kind of test: ELISA, SIRPα V3-mouse IgG2a Fc coated, anti-hFab detection; unit from the x axis; the curve is flat at the baseline, the fit is marked ambiguous (~).
Test [5] has as its target T1, QP094 (human SIRPα V1 ECD(E31-R370)-flag-his) (human, UniProt P78324 31-370).
T1 construct: the construct carries flag and his tags; also called SIRPαV1-flag-his; SIRPαV1-his (QP094)
The test can be described thus: SPR, Biacore 8K. A general note: SPR reads the build-up and loss of mass on a sensor chip optically.

Test [6] has as its target T1, QP094 (human SIRPα V1 …). The test can be described thus: SPR, Biacore 8K. This is another data set of the same source.
In the test “QP096 (human SIRPα V2 …)” the target is T2, QP096 (human SIRPα V2 ECD(E31-R370)-flag-his) (human).
T2 construct: the construct carries flag and his tags; also called SIRPαV2-Flag-his; Human SIRPα V2 (QP096)
The test can be described thus: SPR, Biacore 8K.

For another test, the target named is QP003 (PDL1-his). The test can be described thus: ELISA, QP003 (PDL1-his) captured on coated anti-his, anti-hFc detection; unit from the x axis; no rising curve is seen for it, the fit is marked ambiguous (~).
Test [7] addresses T3, QP098 (cyno SIRPα (I7G9Z7) ECD(E31-R369)-flag-his) (cynomolgus).
T3 construct: the construct carries flag and his tags; also called cynoSIRPα (ECD); cynomolgus SIRPα
T3 chain: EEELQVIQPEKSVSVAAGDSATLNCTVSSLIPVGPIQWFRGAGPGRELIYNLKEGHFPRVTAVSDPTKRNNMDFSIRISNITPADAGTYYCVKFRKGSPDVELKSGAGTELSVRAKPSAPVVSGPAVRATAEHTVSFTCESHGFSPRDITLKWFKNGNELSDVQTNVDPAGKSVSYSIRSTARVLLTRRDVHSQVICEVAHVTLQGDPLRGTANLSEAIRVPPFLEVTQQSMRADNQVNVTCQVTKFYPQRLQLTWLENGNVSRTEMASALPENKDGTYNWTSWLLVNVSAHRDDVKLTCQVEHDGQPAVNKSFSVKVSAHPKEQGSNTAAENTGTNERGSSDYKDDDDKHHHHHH
Kind of test: SPR, Biacore.

The target of test [8] is T4, QP271 (rhesus SIRPα1-flag-his T-557-28) (rhesus monkey).
T4 construct: also called rhesus monkey SIRPα (QP271); monkeySIRPα1-flag-his
T4 chain: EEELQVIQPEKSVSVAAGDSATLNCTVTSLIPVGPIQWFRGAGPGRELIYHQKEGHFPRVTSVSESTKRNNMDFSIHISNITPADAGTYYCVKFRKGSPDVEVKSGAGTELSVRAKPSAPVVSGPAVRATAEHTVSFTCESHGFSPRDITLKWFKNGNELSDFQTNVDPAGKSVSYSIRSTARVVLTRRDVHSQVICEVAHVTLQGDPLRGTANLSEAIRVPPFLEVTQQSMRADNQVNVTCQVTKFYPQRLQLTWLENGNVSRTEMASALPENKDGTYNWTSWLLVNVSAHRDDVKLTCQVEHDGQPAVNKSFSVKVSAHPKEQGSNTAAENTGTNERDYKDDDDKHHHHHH
Kind of test: SPR, Biacore.

The target in test [9] is T5, QP273 (cynoSIRPα2-flag-his T-557-14) (cynomolgus).
T5 construct: also called cynomolgus SIRPα (QP273)
T5 chain: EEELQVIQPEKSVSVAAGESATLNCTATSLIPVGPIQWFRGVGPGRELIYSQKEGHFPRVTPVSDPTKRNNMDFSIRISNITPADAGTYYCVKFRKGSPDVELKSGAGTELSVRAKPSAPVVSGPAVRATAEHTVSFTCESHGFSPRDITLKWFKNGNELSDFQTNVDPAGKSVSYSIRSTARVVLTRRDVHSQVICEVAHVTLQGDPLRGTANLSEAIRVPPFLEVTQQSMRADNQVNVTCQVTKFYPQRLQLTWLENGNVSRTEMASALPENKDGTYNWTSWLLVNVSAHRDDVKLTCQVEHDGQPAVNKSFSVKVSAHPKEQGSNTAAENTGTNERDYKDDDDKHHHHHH
Kind of test: SPR, Biacore.

In test [10] the target is T3, QP098 (cyno SIRPα (I7G9Z7) …). The test can be described thus: binding ELISA, antigen coated.
Test [11] concerns the target T6, QP100 (cyno SIRPα (G7PGS8) ECD(E29-R368)-flag-his) (cynomolgus).
T6 construct: the construct carries flag and his tags; also called cynoSIRPα-flag-his; Cynomolgus SIRPα (QP100)
T6 chain: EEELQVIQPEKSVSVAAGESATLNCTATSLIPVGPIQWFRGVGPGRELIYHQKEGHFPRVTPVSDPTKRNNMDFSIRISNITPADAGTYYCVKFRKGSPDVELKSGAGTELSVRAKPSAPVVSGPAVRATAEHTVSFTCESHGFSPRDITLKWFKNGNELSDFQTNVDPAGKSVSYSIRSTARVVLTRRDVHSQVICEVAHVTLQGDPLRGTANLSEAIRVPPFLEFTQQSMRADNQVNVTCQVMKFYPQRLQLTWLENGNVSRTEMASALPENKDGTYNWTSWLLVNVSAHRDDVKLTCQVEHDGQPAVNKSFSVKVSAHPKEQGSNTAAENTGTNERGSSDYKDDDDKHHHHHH
Kind of test: binding ELISA, antigen coated.

For test [12], the target named is T4, QP271 (rhesus SIRPα1-flag-his T-557-28). The test can be described thus: binding ELISA, antigen coated.
Test [13] deals with T5, QP273 (cynoSIRPα2-flag-his T-557-14). Kind of test: binding ELISA, antigen coated.

Sequence of SIRPα V7 fusion Fc (mouse IgG2a) (human) (chain, as listed by the source limits assumed): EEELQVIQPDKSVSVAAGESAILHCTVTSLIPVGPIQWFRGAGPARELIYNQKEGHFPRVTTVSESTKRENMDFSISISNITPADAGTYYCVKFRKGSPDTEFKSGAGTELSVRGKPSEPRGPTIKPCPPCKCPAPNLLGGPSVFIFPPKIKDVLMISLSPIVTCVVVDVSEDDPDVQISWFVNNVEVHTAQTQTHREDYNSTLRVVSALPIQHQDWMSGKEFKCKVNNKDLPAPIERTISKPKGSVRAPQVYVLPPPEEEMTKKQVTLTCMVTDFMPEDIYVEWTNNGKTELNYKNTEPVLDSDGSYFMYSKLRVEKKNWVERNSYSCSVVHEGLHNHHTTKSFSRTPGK
Sequence of QP003 (PDL1-his) (chain, as listed by the source limits assumed): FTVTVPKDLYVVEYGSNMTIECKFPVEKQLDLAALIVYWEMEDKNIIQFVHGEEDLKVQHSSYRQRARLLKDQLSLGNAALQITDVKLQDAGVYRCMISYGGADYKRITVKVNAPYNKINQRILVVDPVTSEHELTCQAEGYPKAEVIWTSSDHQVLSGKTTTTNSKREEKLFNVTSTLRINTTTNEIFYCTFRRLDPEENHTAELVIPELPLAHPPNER
Sequence of SIRPα V8 fusion Fc (mouse IgG2a) (human) (chain, as listed by the source limits assumed): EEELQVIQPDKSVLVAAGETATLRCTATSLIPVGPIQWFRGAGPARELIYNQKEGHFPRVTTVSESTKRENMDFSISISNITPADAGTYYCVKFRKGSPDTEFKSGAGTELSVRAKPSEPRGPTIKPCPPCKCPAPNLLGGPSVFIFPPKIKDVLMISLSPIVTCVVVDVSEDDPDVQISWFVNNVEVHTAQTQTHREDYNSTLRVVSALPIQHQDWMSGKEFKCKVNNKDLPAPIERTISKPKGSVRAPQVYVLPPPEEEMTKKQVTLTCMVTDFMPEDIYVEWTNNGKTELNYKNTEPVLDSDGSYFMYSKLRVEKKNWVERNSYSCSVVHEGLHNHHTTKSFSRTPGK
Sequence of SIRPα V2 fusion Fc (mouse IgG2a) (human) (chain, as listed by the source limits assumed): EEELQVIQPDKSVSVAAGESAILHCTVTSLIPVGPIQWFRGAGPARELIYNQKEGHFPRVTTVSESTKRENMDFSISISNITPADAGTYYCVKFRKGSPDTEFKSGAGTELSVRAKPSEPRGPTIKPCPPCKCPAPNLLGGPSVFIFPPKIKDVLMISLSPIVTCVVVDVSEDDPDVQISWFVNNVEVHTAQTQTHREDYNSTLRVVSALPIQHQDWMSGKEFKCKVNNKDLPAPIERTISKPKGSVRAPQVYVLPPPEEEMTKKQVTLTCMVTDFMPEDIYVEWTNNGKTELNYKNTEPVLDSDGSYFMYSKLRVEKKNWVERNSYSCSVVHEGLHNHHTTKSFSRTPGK

B1: QP250251 (18D5 analog) (antibody, human IgG4 S228P, kappa, V domains shown)
VH: QVQLQQPGAELVRPGSSVKLSCKASGYTFTSYWVHWVKQRPIQGLEWIGNIDPSDSDTHYNQKFKDKASLTVDKSSSTAYMQLSSLTFEDSAVYYCVRGGTGTMAWFAYWGQGTLVTVSA
VL: DVVMTQTPLSLPVSLGDQASISCRSSQSLVHSYGNTYLYWYLQKPGQSPKLLIYRVSNRFSGVPDRFSGSGSGTDFTLKISRVEAEDLGVYFCFQGTHVPYTFGSGTKLEIKR
notes: also called SIRPα antibody 18D5 from OSE
Usually EC50 stands for the concentration at which the effect is half-maximal. In the case of B1, the binding result in test [1] and in [2] was “no binding (tested: about 67 nM (last point at log 1.8))” each time. In addition, the EC50 in test [3] is approximately 0.0554 nM; in [4], approximately 58.7 nM.

B2: QP026249 (KWAR23 analog) (antibody, human IgG4 S228P, kappa)
heavy: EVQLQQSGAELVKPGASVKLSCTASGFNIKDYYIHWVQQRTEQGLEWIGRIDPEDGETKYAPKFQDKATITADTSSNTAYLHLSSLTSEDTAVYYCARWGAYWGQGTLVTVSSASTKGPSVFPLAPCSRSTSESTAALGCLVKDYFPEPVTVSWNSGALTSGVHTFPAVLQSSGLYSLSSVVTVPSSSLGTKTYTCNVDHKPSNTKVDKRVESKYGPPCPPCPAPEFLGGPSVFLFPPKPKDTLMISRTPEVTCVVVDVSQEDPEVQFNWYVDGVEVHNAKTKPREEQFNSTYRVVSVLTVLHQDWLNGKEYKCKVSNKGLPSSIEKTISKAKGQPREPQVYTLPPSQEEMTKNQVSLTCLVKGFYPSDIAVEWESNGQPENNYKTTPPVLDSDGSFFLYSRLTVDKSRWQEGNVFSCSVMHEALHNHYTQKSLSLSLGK
light: QIVLTQSPAIMSASPGEKVTLTCSASSSVSSSYLYWYQQKPGSSPKLWIYSTSNLASGVPARFSGSGSGTSYSLTISSMEAEDAASYFCHQWSSYPRTFGAGTKLELKRTVAAPSVFIFPPSDEQLKSGTASVVCLLNNFYPREAKVQWKVDNALQSGNSQESVTEQDSKDSTYSLSSTLTLSKADYEKHKVYACEVTHQGLSSPVTKSFNRGEC
notes: also called KAWA23 analog; control antibody KWAR23 (QP026249), human IgG4
What is called Kd is the free concentration of one partner at which half of the binding sites on the other are occupied at equilibrium, for simple one-to-one binding. What is called koff is the first-order rate constant of dissociation. Higher therefore signals fast dissociation. Broadly, the kon is the rate constant with which the complex forms. A higher kon goes with fast association. Turning to B2, the Kd turned out to be 4.7 nM in the test with QP094 (human SIRPα V1 …) [5], 4.69 nM with QP094 (human SIRPα V1 …) [6] and 17.5 nM in the test with QP096 (human SIRPα V2 …). Moreover, the koff is 0.00386 s⁻¹ with QP094 (human SIRPα V1 …) [5], 0.00386 s⁻¹ with QP094 (human SIRPα V1 …) [6] and 0.0242 s⁻¹ with QP096 (human SIRPα V2 …). Moreover, the results for the kon in the test with QP094 (human SIRPα V1 …) [5], in the test with QP094 (human SIRPα V1 …) [6] and with QP096 (human SIRPα V2 …) were 822000 M⁻¹ s⁻¹, 822000 M⁻¹ s⁻¹ and 1.38e+06 M⁻¹ s⁻¹, respectively. Moreover, in the test with QP003 (PDL1-his), the EC50 is approximately 0.000685 nM.

B3: QP256279 (antibody, human IgG4, V domains shown)
VH: QVQLVQSGAEVKKPGASVKVSCKASGYTFTNYWINWVRQAPGQGLEWIAMIDPSDSETHYNQIFKDRATLTTDTSTSTAYMELRSLRSDDTAVYYCAMDYGSLYAMDYWGRGTLVTVSS
VL: DIVLTQSPDSLAVSLGERATINCRASQSVRSSGYNWIFWYQQKPGQPPKLLIYLASNRDSGVPDRFSGSGSGTDFTLTISSLQAEDVAVYYCQHSRELPTFGQGTKLEIK
notes: Human IgG4 heavy constant region and kappa CL
As for B3, the Kd in test [7] was 1.56 nM; in [8] it was 0.441 nM; in [9], 0.918 nM. The 50% effective concentration (EC50) came out at 0.619 ng/mL in test [10], 0.558 ng/mL in test [11], 0.601 ng/mL in test [12] and 0.721 ng/mL in [13].
